In the nanobody polyreactivity screen of Harvey et al. (2022):

assay: yeast display, Sf9 membrane polyspecificity reagent, FACS + sequencing; frameworks hold sequencing errors
In short: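 Galactose induction of a Saccharomyces cerevisiae BJ5465 synthetic nanobody display library ran 36–48 hours. The cells were then stained for 1 hour at 4 °C with 10% biotinylated, detergent-solubilized Sf9 membrane reagent, pulled down on streptavidin microbeads and FACS-sorted into low and high (top ~1%) gates on expression and reagent-binding fluorescence. Labels for polyreactivity follow the gate of origin.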

Q: For “QVQLVESGGGLFQAGGSLRLSCAASGYIFRSYAMGGYRQAPGKERELVAAITRSGGSTYYADSVKGRFTISRDNAKNTVYFQMNSLKPEDTAVYYCAVLPRGSNGMDYCGQGTQVTVSS”, which “polyreactivity (PSR sort gate)” value is on record?
A: low polyreactivity

Q: For “QVQLVESGGGLFQAGGSLRLSCAATGRIFYSNAMGWYRQAPGKERELVAAINSRGGRTYYADSLKGRFTISRDNAKNTVYLQMNSLKPEDTAVYYCAAPTGPKGYYSDRGDSWGQGTQVTVSS”, which “polyreactivity (PSR sort gate)” value is on record?
A: high polyreactivity

Q: With “QVQLVESGGGLFQAGGSLRLSCAATGRTFDPYAMGWYRQAPGKERELVAVISISDGSTYYADSVKGRFTISRDNAKNTVYLQMHSLKPEDTAVYYCAAYVFYDYWTLEYWGQGTQVTVSS” as the sequence, how does the “polyreactivity (PSR sort gate)” value read?
A: high polyreactivity

Q: For “QVQLVESGGGLFQAGGSLRLSCAATVSNYRYYAMGWYRQAPGKETELVAYITSSGGSTYYADSVKGLFTISRDYAKNTVYLQMNSLKPEDTAVYYCAALSWLYVYPFTEYDYWGQGTQVTVSS”, which “polyreactivity (PSR sort gate)” value is on record?
A: low polyreactivity

Q: With “QVQLVESGGGLFQAGGSLRLSCDPSGSIFEYYAMGWYRQAPGKERELVAAITQSGGSTYYADSVKGRFHKFTRQCEEYRLFPDEQPETGRYRGISLAADAECYQNDYALDYWGQGTQVTVSS” as the sequence, how does the “polyreactivity (PSR sort gate)” value read?
A: low polyreactivity

Q: Which “polyreactivity (PSR sort gate)” value does the source give for “QVQLVESGGGLFQAGGSLRLTCAASGFTFSYNAMGWYRQAPGKERELVAAISSSGGSTYYADSVKVRFTISRENAKNTVYLPMNSLKPVDTAVYYCAVPYLTLYGRTYDYWGQGTLVTVSS” here?
A: high polyreactivity

Q: Which “polyreactivity (PSR sort gate)” value does the source give for “QVQLVESGGGLFQAGGTLRLSCDASGLIFLSYGMAWYRQAPGKERELVAAISSGGSTYYADSVKGRFTISRDNAKNTDYLQMNSLKPEDTAVYYCASEQPIEFDHWGQGTQVTVSS” here?
A: low polyreactivity

Q: Which “polyreactivity (PSR sort gate)” value does the source give for “QVQLVESGGGLFQAGRSLRLSCAASGRIFVANAMGWYRQAPGIERELVAAISGRGSRTYYADSVKGRFTISRDNAKNTVYLQMNSLKPEDTAVYYCAARYRYDGRYDYWGQGTQVTVSS” here?
A: high polyreactivity

Q: Which “polyreactivity (PSR sort gate)” value does the source give for “QVQLVESGGGLFQAVGSLRLSCAASGFIFYDYAMGWYRQAPGKEMELVAAISKRGGSTYYADSVKGRFTISRDNAKNTVYLQMNSLKPEDTADYYCAAALWGWRYYYWGQGTQVTVSS” here?
A: high polyreactivity

Q: Which “polyreactivity (PSR sort gate)” value does the source give for “QVQLVESGGGLFQEGGSLRLSCAASGRIFGPYDMGWYRQAPGKERELVAAISQRGGTTYYADSVKGRFTISRDNAKNTVYLQMNSLKPEVTAVYYCAPKTYGWGQGTQVNVSS” here?
A: high polyreactivity

Q: Which “polyreactivity (PSR sort gate)” value does the source give for “QVQLVESGGGLFQEGGSLRLSCAASGRTFKYYAMGWYRQAPGKERELVASISQSGTSTYYADSVKGRFTISRDNAKSTVYLQLNSLKPEDTAVYFCGARTRYRYYSYGYWGQATQVTVSS” here?
A: high polyreactivity

Q: Which “polyreactivity (PSR sort gate)” value does the source give for “QVQLVESGGGLFQSGGSLRLSCAASGITFRYYAMGWYRQAPGKERELVAAISSGGSTNYADSVKGRFTISRDNAKNSVYLQINSLKPEDTAVYYCYRRVYSRRYYGYYYWGQGTQVTVSS” here?
A: high polyreactivity

Q: With “QVQLVESGGGLGEAGGSLRLSCAASGSTFGYYAMGWYRQAAGKEREFVAAITGNSDNTYYADSVKGRFTISRDNATNTVYLQMNSLKPEDTAVYYCNDALDPFRFEYWRQGTQVTVSS” as the sequence, how does the “polyreactivity (PSR sort gate)” value read?
A: low polyreactivity

Q: Which “polyreactivity (PSR sort gate)” value does the source give for “QVQLVESGGGLGHAGGSLRLSCAASGRIYGRNAMGWNRKAQGKERELVAAINSGVSTYYADSVKGRFTISRDNAKNTFYLQMNSLKPEDTAVYYCAKAPQRRYYDFDYWGQGTQVTVSS” here?
A: low polyreactivity

Q: With “QVQLVESGGGLGQAGGSLRLSCAASGFNFYGYAMGWYRQAPGKERELVAAISSGGGRTYYADSVKGLFTISRDNAKNTVYLQMNSLKPEDTAVYYCAAKVYFYTGGGGEDYWGQGTKVTVSS” as the sequence, how does the “polyreactivity (PSR sort gate)” value read?
A: low polyreactivity

Q: For “QVQLVESGGGLGQAGGSLRLSCAASGFTFGGNGMGWYRPAPGKERELVASISWGGGSTYYADSVKGRFRISRDKAKNTVYLQMNSLKREDTAVYDCNADRYYWSSRPTSWFNYWGQGTQVTVSS”, which “polyreactivity (PSR sort gate)” value is on record?
A: high polyreactivity

Q: With “QVQLVESGGGLGQAGGSLRLSCAASGIIFWLYAMGWYRQAPGKDRELVAAITRSDGDTYYADSVKGRFTISRDNAKNTVYLQMNSLKPEDTAVYYCAARFTDYIHIWPFLLYNEVYYWGQGTQVTVSS” as the sequence, how does the “polyreactivity (PSR sort gate)” value read?
A: low polyreactivity

Q: For “QVQLVESGGGLGQAGGSLRLSCAASGRIFGGYTMGWYRQAPGKEREFVDTISRSSGSTYYADSVKGRFTISRDHAKNTVYLQMNSLKPEDTAVYYCAAVYLYATGYDYWGQCTQVTVSS”, which “polyreactivity (PSR sort gate)” value is on record?
A: high polyreactivity

Q: Which “polyreactivity (PSR sort gate)” value does the source give for “QVQLVESGGGLGQAGGSLRLSCAASGRIFPKYVMGWYRQAPGKERELVAAIDKSADRTYYADSVKGRFTISRDNAKNTVYLQMNSLKPEDTAVYYCATAGYRLLDYWGQGTQVTVSS” here?
A: high polyreactivity

Q: With “QVQLVESGGGLGQAGGSLRLSCAASGRILKYYDMGWYRQAPGKERELVAAISVSGTSTYYADSVKGRFTISRDNAKNTVYLQMNSLKPEDTAVYYCATATGRYSFDYWGQGAQVTVSS” as the sequence, how does the “polyreactivity (PSR sort gate)” value read?
A: low polyreactivity

Q: For “QVQLVESGGGLGQAGGSLRLSCAASGRTFGDYVMGWYRQAPGKEREFVAAITDSGDRTYYADSVKGRFTISRDNAKNTVYLQMNSLKPEDTAVYYCNDEIWDWYYWYAYWGQGTQVTVSS”, which “polyreactivity (PSR sort gate)” value is on record?
A: high polyreactivity

Q: Which “polyreactivity (PSR sort gate)” value does the source give for “QVQLVESGGGLGQAGGSLRLSCAASGRTFTYNAMGWYRQAPGKERELVAAISYSGGRTYYADSVKGRFTISRDNAKNTVYLQMNSLKPEDTAVYYCARAYLGYYGRTYEYWGQGTQVTVSS” here?
A: high polyreactivity

Q: For “QVQLVESGGGLGQAGGSLRLSCAASGSIFEGNGMGWYRPAPGKERELVAAITFRSGSTYYADSVKGRFTISRDNAKNTVYLQMNSLKPEDTAVYYCAADEYYQVSAYDYWGQGTQVTVSS”, which “polyreactivity (PSR sort gate)” value is on record?
A: low polyreactivity

Q: For “QVQLVESGGGLGQAGGSLRLSCAASGSIFPYYAMGWYRPAPGTERELVASINQSDGTPYYADSVKGRFTISRDNAKNTVYLQMNSLKPEDTAVYYCAADTTLQAFIRYRPIGSYDSWGQGTQVTVSS”, which “polyreactivity (PSR sort gate)” value is on record?
A: low polyreactivity

Q: Which “polyreactivity (PSR sort gate)” value does the source give for “QVQLVESGGGLGQAGGSLRLSCAASGSIFQGYTMRWYRQARGKARELVAAITRSVTSTYYADSVKGRFTISRDNAKNTVYLQMNCLKPEDTAVYYCAATAYYARYWYDYWGQGTQVTVSS” here?
A: high polyreactivity

Q: With “QVQLVESGGGLGQAGGSLRLSCAASGSIFRGYAMGWYRQAPGKERELVAAISWSGGSTYYADSVKGRFTISRDNAKNTVYLQMNSLKPEDTAVYYCAADRDVFGYWYYYWGQGTQVTVSS” as the sequence, how does the “polyreactivity (PSR sort gate)” value read?
A: high polyreactivity

Q: For “QVQLVESGGGLGQAGGSLRLSCAASGSIFTQYAMGWFRPAPGKERELVATISKSSGSTYYADSVKGRFTNSRDNAKNTVYLQMNSLKPEDTAVYDCAARYTRAYPYYYWGQGTQVTVSS”, which “polyreactivity (PSR sort gate)” value is on record?
A: high polyreactivity

Q: With “QVQLVESGGGLGQAGGSLRLSCAASGSIFYRNARGWYRQAPGKERELVASITSGGRTNYADSVKGRFTISRDNAKYSVYLQMNSLKPEDTAVFYCARGRASYTTSGPTPYTGYGYWRQGTQVTVSS” as the sequence, how does the “polyreactivity (PSR sort gate)” value read?
A: low polyreactivity

Q: Which “polyreactivity (PSR sort gate)” value does the source give for “QVQLVESGGGLGQAGGSLRLSCAASGSIFYRYAMGWYRKAPGKERELVAAITRRGARTYYADSVKGRFTISRDNAKNTVYLQLNSLKPEDTAVYYCAATYYYWTGWRYVRGDYWGQGTQVTVSS” here?
A: high polyreactivity

Q: Which “polyreactivity (PSR sort gate)” value does the source give for “QVQLVESGGGLGQAGGSLRLSCAASGSIRDSNAMGWYRQAPGKERELVAAITSGGSTYYADSVKGRFTISRDNAKNTVYLQMNSLKPEDTAVYYCAAAYLGYGAVQPSYEGGYWGQGTQVTVSS” here?
A: low polyreactivity

Q: Which “polyreactivity (PSR sort gate)” value does the source give for “QVQLVESGGGLGQAGGSLRLSCAASGSIYNDNVMGWYRQAPGKERELVAGISRSGTRTYYADSVKGRFTISRDNAKNTVYLQMNSLKPEDTAVYYCAAAYGQARRYNASQYGSWGQGTQVTVSS” here?
A: high polyreactivity

Q: Which “polyreactivity (PSR sort gate)” value does the source give for “QVQLVESGGGLGQAGGSLRLSCAASGSTFIDNAMGWYRQAPGKERELVAAINSSGGNTYYADSVKWRFTISRDNAKNTVYLQMNSLKPEDTAVYYCNAEFYVLYFYDYEYWGQGTQVTLSS” here?
A: low polyreactivity

Q: With “QVQLVESGGGLGQAGGSLRLSCAASGSTFYRFTRGWYRQAPGKERELVASIRWTGGRTNYADSVKGRFTISRDNAKNTVYLQMNSLKPEDTAVYYCAAYLKYPYGASYGSWGQGTQVTVSS” as the sequence, how does the “polyreactivity (PSR sort gate)” value read?
A: high polyreactivity

Q: With “QVQLVESGGGLGQAGGSLRLSFAASGRTFWYNAMGWYRQAPGKERELVAAISNGGSTNYADSVKGRFTISRDYATNTVYLQMNSVKPEDTAVDYCNAGLYRSPYPGRLGSRYDYWGQGTQVTVSS” as the sequence, how does the “polyreactivity (PSR sort gate)” value read?
A: high polyreactivity

Q: Which “polyreactivity (PSR sort gate)” value does the source give for “QVQLVESGGGLGQAGGSLRLSSAASGGTFGSNTMGWYRQAPGKERELVAAITSGVSTYYADSVKGRFTISRDNAKNTVYLQMNSLKPEDTAVYYCAADTTQLQGVEGDYWGQGTQVTVSS” here?
A: low polyreactivity

Q: Which “polyreactivity (PSR sort gate)” value does the source give for “QVQLVESGGGLIQAGGSLRLRCAASGSTFPYYAMGWYRQAPGKEREFVAAIRFSGSSTYYADSVKGRFTISRDNAKNTVFLQMNRLIPEDTAVYYCATDYWLPSYSYDYWGQGTQVTVSS” here?
A: low polyreactivity

Q: Which “polyreactivity (PSR sort gate)” value does the source give for “QVQLVESGGGLLHAGGSLRLSCAASGRTFDHYAMGWYRQAPGKERELVAAISSRGSSTYYADSVKGRFTISRDNAKNTVYLQMNSLKPEDTAVYYCAAKYIRDYTSNPRGYWGHGTQVTVSS” here?
A: high polyreactivity

Q: With “QVQLVESGGGLLHAGGSLRLSFAASGRIFYYNGMGWYRQAPGKERELVAAISRGGSTYYADSVKGRFTISRDNAKNTVYLQMNRLLPEDTAVYDCAAYRGGLVNYWGQGSQVTVSS” as the sequence, how does the “polyreactivity (PSR sort gate)” value read?
A: high polyreactivity

Q: With “QVQLVESGGGLLQAGGSLRISCAASGRIFGRYAMGWYRQAPGKERELVASISRGGSTNYADSVKGRFTISRDNAKNTVYLQMNSLKPEDTAVYYCAADLNAYPQRAYDYWGQGTQVTVSS” as the sequence, how does the “polyreactivity (PSR sort gate)” value read?
A: low polyreactivity

Q: Which “polyreactivity (PSR sort gate)” value does the source give for “QVQLVESGGGLLQAGGSLRLSCAASGFIFKYYAMGWYRQAPGKEREFVAGINWSGTSTYYADSVKGRFTISRDNAKNTVYLQMNSLKPEDTAVYYCAATAYRGRTSRYYYWGQGTQVTVSS” here?
A: high polyreactivity

Q: For “QVQLVESGGGLLQAGGSLRLSCAASGFTFATYAMGWYRQAPGKERELVAAISTSGGSTYYADSVKGRFTISRDNAKNTVYLQMNSLKPEDTAVYYCNAVSRSYRYAGVPGFHYDYWGQGTQVTVSS”, which “polyreactivity (PSR sort gate)” value is on record?
A: high polyreactivity

Q: With “QVQLVESGGGLLQAGGSLRLSCAASGFTFGFYGRGWYRQAPGKERELVAAISYSGGTTYYADSVKARFTIARDNAKNTVYLQMNCLKPQDTAVNYCNTQSRETEDADYWGQGTQVTVSS” as the sequence, how does the “polyreactivity (PSR sort gate)” value read?
A: high polyreactivity

Q: For “QVQLVESGGGLLQAGGSLRLSCAASGFTFRSYDMGWYRQAPGKERELVAAISWRGGRTYYADSVKGRFTISRDNAKNTVDLQMNSLKPEDTAVYYCATDWYWGSYAPYTTRAHFDYWGQGTQVTVSS”, which “polyreactivity (PSR sort gate)” value is on record?
A: high polyreactivity
